Test results published in the supplement of paper PMC9170038.

Test system: MS2 coat protein
Test: apparent KD of MS2 coat protein; designed switch direction (-1 OFF switch, 1 ON switch): -1; higher = weaker reporter binding
Method in brief: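 Designed RNA switches with common flanks were transcribed on Illumina chips by stalled E. coli RNA polymerase and titrated with SNAP-549-labelled MS2 coat protein, from 0.7 or 1.5 nM doubling to 3 µM, in Tris-HCl pH 7.5 buffer with KCl, MgCl2, BSA, DTT, tRNA and Tween-20. Steps lasted 0.8–1.5 h (lowest) to 10–20 min (highest). Titrations ran without input, with 200 uM small-molecule ligand, or with an oligonucleotide input. Normalised cluster fluorescence was curve-fitted, and apparent KD is the per-design median over clusters.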

[1] = Eterna round: R95, input ligand: microRNA oligo, concentration not stated
[2] = Eterna round: R95, input ligand: FMN 200 uM
[3] = Eterna round: R95, input ligand: none
[4] = input ligand: microRNA oligo, concentration not stated

Sequence	apparent KD of MS2 coat protein [1] [nM]	apparent KD of MS2 coat protein [2] [nM]	apparent KD of MS2 coat protein [3] [nM]	apparent KD of MS2 coat protein (input ligand: FMN 200 uM) [nM]	apparent KD of MS2 coat protein [4] [nM]	apparent KD of MS2 coat protein (input ligand: none) [nM]
UUUUACCAAGGAUAUACAUUUUUUUUAUUAUUUUCAUUAUAACAUGAGGAUCACCCAUGUAGAAGGUGGAUUUU [My Design] (puzzle: Exclusion 2)	59.6	–	–	–	–	–
AAGAAACAUGAGGAUCACCCAUGUGAGGAUAUGAAAAAUAAAAGAAAAGAAAGAAUAAUCAGAAGGCACAAAGG [Mat - Mod of Hog D10] (puzzle: Exclusion 1)	37.3	51.4	41.4	–	–	–
CGUCGAAAUGUAGGAUAUCUGCACGUUUAGUGCAGAGAAGGACAUGAGGAUCACCCAUGUAGAUCACGACGAAUUAAUUUAAUU [ENG1/5-C2] (Eterna round: R96, puzzle: Exclusion NG 1)	–	–	–	374	47.3	65.8
AAAGUGUGAGGAUAUCCGGGACUGGGCCGGGAGGUUCGGAAGGAGAAGGCACAUGAGGAUCACCCAUGUAACGG [Excls4-X] (puzzle: Exclusion 4)	46.9	–	–	–	–	–
AUGGCAAAGUUAGGAUAUGCAGUCUCCAAGACUGCAGAAGGAACGGUCCUCCUCCCUGAAACAUGAGGAUCACCCAUGUAAAGC [Eternabot solution 45] (Eterna round: R96, puzzle: Exclusion NG 1)	–	–	–	56.4	53.7	93.8
UCUAGACAUGAGGAUCACCCAUGUGAGGAUAUGAUGCGAAUAAAGAAAGAAGAAAGCAUCAGAAGGCACAUAUG [Fiskers Ex 1 - 3] (puzzle: Exclusion 1)	116	210	191	–	–	–
GGGUGACAUGAGGAUCACCCAUGUCAGGAUAUGAUACUAUGUACUUCGGUACAUAGUAUCAGAAGGGACAUCAU [Ex1-3: 14] (Eterna round: R96, puzzle: Exclusion 1)	–	–	–	112	253	424
UAUAUGUGAGGAUAUCAGGUGUGCUAGCGUACUGGUACAUCUGAGAAGGCACAUGAGGAUCACCCAUGUUUCUU [JL-ex4-3.24 Brourd mod] (puzzle: Exclusion 4)	24.4	–	–	–	–	–
UUAAUUACGGUGCUUUAACCUCACAUGAGGAUCACCCAUGUGCAGGAUAUCAGCUCGUUUAGAGCUGAGAAGGGCACUGCACCG [ExNG3/11-A2] (Eterna round: R96, puzzle: Exclusion NG 3)	–	–	–	13.9	8.87	13.5
CUGAAUAGAGGAUAUUGUACUGCUGACAUGAGGAUCACCCAUGUAUGUUAACUCGGCCGUCGAGAAGGCUAACAAA [BotMod 13 - Jieux - Exclusion 5] (Eterna round: R97, puzzle: Exclusion 5)	–	–	–	16.9	–	41.2
AAUUAUUAUUGAGGAUAUCGUAUUGAAACAAUACGAGAAGGCGGAAUAAACAUGAGGAUCACCCAUGUGAGCCUGAUGCUUGUG [Ex NG1 #42] (Eterna round: R96, puzzle: Exclusion NG 1)	–	–	–	–	13.4	–
AAAACAAACUUUUUGCUCGUCUUAUAUGACGCUCGAGUCACAUGAGGAUCACCCAUGUCUUCCUGUUUGAUAGUUGA [JR_SV3TOV2_Sub055] (puzzle: Sensor v3, turn-off variant 2)	113	113	142	–	–	–
AAGUAUCAUGUAGGAUAUGCUAUCCGAACGGUAGCAGAAGGACAUGAGGAUCACCCAUGUUCUCAUCUGUGAGAACAGAUGUCU [Ex NG1 #5] (Eterna round: R96, puzzle: Exclusion NG 1)	–	–	–	95.2	19.4	22.3
CUAAAUCAUGUAGGAUAUGCGUGGCAAAGCUAUGCAGAAGGACAUGAGGAUCACCCAUGUCAUUCCGUCUGGAGACAGACGGGA [Mat - Exclusion NG 1 - Mod of JL - D54] (Eterna round: R96, puzzle: Exclusion NG 1)	–	–	–	182	20.7	25
AAACCCUGAGGAUAUGCAUAACAACAAAGCCUCACGUGCCAACAUGAGGAUCACCCAUGUAGAAGGCAGGCCAA [Mod R3 Insanara 15 - Jieux - Exclusion 2] (Eterna round: R97, puzzle: Exclusion 2)	–	–	–	20.7	–	15.3
GCAGCAUAUGUAGGAUAUCUGCACGAUUAGUGCAGAGAAGGACAUGAGGAUCACCCAUGUAAUUAAGAUCAAUUAUUAAGCUGC [ENG1/4-A1] (Eterna round: R96, puzzle: Exclusion NG 1)	–	–	–	33.3	15.6	22.8
ACAAGCUUAAAAAUCCUAAACAUGAGGAUCACCCAUGUUCGUCUUAUAAAAAUAAAAAUAAAAAAUAAAAAAUAAAA [Sensor V2: 70] (Eterna round: R96, puzzle: Sensor v2, turn-off variant)	–	–	–	49.1	228	51.9

Sequence	apparent KD of MS2 coat protein [1] [nM]	apparent KD of MS2 coat protein [2] [nM]	apparent KD of MS2 coat protein [3] [nM]	apparent KD of MS2 coat protein (input ligand: FMN 200 uM) [nM]	apparent KD of MS2 coat protein [4] [nM]	apparent KD of MS2 coat protein (input ligand: none) [nM]
UAGAAUCGAGGAUAUACAUGAGGAUCACCCAUGUGUGGCCAUACGGUGUGGUCGUCAGGUAGAAGGCGAUUAUA [Exclusion 3 - Mod of Jieux's Gilly Gone Silly 23 v.2] (puzzle: Exclusion 3)	28	–	–	–	–	–
UUUUAACAUGAGGAUCACCCAUGUGAGGAUAUCGAAAUUUAUAUUAAUAUUAUUUAAACGAGAAGGCACAUUUU [JMF 43] (puzzle: Exclusion 1)	70.4	–	–	–	–	–
ACAGUUCUGCAAGGAUAUCGUCCUAGUUUGUUUCGAGAAGGUGCUUUAGUUUAUUCCUUUUGUUUACAUGAGGAUCACCCAUGU [JR_ExcNG1_Sub050] (Eterna round: R96, puzzle: Exclusion NG 1)	–	–	–	–	18	–
AGCUGUGGCCGAGGAUAUCUAUCUCCAAUAACCGAAAUAUAAUCGGACAUGAGGAUCACCCAUGUAGAGAAGGCGGUCUCAGCA [Eli eng2 - 090] (Eterna round: R96, puzzle: Exclusion NG 2)	–	–	–	–	15	–
UCUCUUGGGCAAGGAUAUCCUGUGCGGUUCCGGCUCGUGUCUGUCACAUGAGGAUCACCCAUGUGGGAGAAGGUGCCUGCGGUC [Design 81] (Eterna round: R96, puzzle: Exclusion NG 2)	–	–	–	13.6	9.94	15.1
GACUGGACGUGGUCUGGUAACAUGAGGAUCACCCAUGUAGGUCUAAGAACAUGCCUUUUGCACGCUCGUCUUAUAUA [JR_SV3TOV1_Sub064] (puzzle: Sensor v3, turn-off variant 1)	34.8	33.3	32.7	–	–	–
AUCUGUGAGCGAGGAUAUCUGCUGUUGUCGGUCGGAGAAGGCGCGGACAGAACAUGAGGAUCACCCAUGUGUAUGGGCGGCCUC [Isvetima] (Eterna round: R96, puzzle: Exclusion NG 1)	–	–	–	256	14.1	99.6
ACAUGAGGAUCACCCAUGUUUGGCUGGUUUUCUCCGGCUGUCGAGGAUAUAGUCCGGUAUCCGCGCUAGAAGGUGAGGGUCGGC [Aenatbe mod 3] (Eterna round: R96, puzzle: Exclusion NG 3)	–	–	–	12.1	17.6	21.6
CUCAUUAGUCAGGAUAUCGUGUGGGUAAUUGUACGAGAAGGGACGACAUGAGGAUCACCCAUGUGGUCUUUGGG [JR_Ex6_Sub085] (Eterna round: R97, puzzle: Exclusion 6)	–	–	–	70.6	–	165
GCGCAAACGCCAAAAGGCGAAACAACAUGAGGAUCACCCAUGUAGGAUAUCGAUUGCUUUGCAGUCGAGAAGGACAAAAUGCGC [JL ENG3 3.80 Mod 6] (Eterna round: R96, puzzle: Exclusion NG 3)	–	–	–	11.6	10.6	15.7
AAUAAGCUAGGAUAUACAUGAGGAUCACCCAUGUCCACGCUCUGGAGGGCUGAAUGAUGUAGAAGGAGCAGUGG [Zabier] (puzzle: Exclusion 3)	19.2	17.2	13.9	–	–	–
GCAUGGAAAGUGAGGAUAUACCACUGGAUACAGUGGUAGAAGGCACAUGAGGAUCACCCAUGUUCCUACCAUGC [Fiskers BMX 4 - 39] (puzzle: Brourd's mod of Exclusion 4)	15	–	–	–	–	–
AGUACUAUCACGAGAGUGAUAGUACAUUAAACUUGUGAGACAUGAGGAUCACCCAUGUCCUCAUGAGCUCGUCUUAA [Mat - Sensor v2 - var 2 - Mod - D185] (Eterna round: R96, puzzle: Sensor v2, turn-off variant 2)	–	–	–	299	96.1	165
UAUUAGCAAGCGAGAUCCCACAUGAGGAUCACCCAUGUGCUCGUCUUAUAAAAGACUGUGACGAAAGUCACGGUCAC [Mat - Sensor, turn-off var - Eli Mod - D21] (Eterna round: R97, puzzle: Sensor, turn-off variant 1)	–	–	–	14.6	–	15.7
GAUAUGCGUGUGAGGAUAUUCGACGCGCAAACGGAGAAGAAGGCACAUGAGGAUCACCCAUGUGGAGGGAAGAA [BmEX4 A.13] (Eterna round: R97, puzzle: Brourd's mod of Exclusion 4)	–	–	–	82.8	–	20.7
AAGGUGUUAGGAUAUCGUAGUUUGUGGCAGACGGGAUUUUGCGAGAAGGAACAUGAGGAUCACCCAUGUCGGAU [JR_Exclu4_Sub041] (puzzle: Exclusion 4)	27.1	–	–	–	–	–
UAUGACUGAGGAUAUUGUACUGCUGACAUGAGGAUCACCCAUGUAUGCUAACUCGGCCGUCGAGAAGGCAGUUAUG [BotMod 26 - Jieux - Exclusion 5] (Eterna round: R97, puzzle: Exclusion 5)	–	–	–	16.5	–	52
